Molecular target: glutathione-S-transferase (GST)-tagged recombinant RARa ligand binding domain (LBD) (UniProt P10276)
Assay: cell-free TR-FRET coactivator recruitment assay; the concentration varied is that of the retinoid Rald, not of either protein

Sequence of glutathione-S-transferase (GST)-tagged recombinant RARa ligand binding domain (LBD) (P10276 183-417 limits assumed): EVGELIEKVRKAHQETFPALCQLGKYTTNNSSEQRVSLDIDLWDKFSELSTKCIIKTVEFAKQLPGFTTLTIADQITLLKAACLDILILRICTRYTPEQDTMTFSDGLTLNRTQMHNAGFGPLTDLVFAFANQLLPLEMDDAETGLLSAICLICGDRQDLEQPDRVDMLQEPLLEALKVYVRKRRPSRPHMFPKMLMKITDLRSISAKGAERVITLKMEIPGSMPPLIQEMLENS

## fluorescein-labeled coactivator peptide (PGC-1a)
  EC50 of retinaldehyde (Rald, small-molecule ligand) for recruitment of PGC-1a to RARa: 0.082 µM

Reference: patent US20140378530A1
